According to publication doi:10.1101/2023.07.12.548668:

Target: XLF (UniProt Q9H9Q4)
Test: NMR titration (2D lineshape, TITAN)
Conditions: NMR buffer (composition, salt and pH not in material); 800 MHz, 298 K stated for relaxation measurements; EMSA buffer not given

Chain of XLF (Q9H9Q4 whole entry): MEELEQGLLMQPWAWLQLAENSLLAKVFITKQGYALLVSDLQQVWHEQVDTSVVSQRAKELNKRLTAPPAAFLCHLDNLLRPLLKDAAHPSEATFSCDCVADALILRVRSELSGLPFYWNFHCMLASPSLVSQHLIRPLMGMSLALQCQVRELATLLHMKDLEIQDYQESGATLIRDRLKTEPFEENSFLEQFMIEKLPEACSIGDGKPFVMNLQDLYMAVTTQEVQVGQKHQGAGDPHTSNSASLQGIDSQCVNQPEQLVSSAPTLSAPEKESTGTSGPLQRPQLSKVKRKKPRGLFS

Substance | Kd [µM]
18mer DNA | 33.7
21mer DNA | 16.2
15mer DNA | 141
